Laboratory results reported in patent US20150037868.

What was measured:
[1] = target: Pgi-HRV-I526 (Pgi with HRV 3C recognition sequence inserted after amino acid 526)
[2] = target: T1, TktA variant with HRV protease cleavage motif inserted after amino acid 636
T1 chain: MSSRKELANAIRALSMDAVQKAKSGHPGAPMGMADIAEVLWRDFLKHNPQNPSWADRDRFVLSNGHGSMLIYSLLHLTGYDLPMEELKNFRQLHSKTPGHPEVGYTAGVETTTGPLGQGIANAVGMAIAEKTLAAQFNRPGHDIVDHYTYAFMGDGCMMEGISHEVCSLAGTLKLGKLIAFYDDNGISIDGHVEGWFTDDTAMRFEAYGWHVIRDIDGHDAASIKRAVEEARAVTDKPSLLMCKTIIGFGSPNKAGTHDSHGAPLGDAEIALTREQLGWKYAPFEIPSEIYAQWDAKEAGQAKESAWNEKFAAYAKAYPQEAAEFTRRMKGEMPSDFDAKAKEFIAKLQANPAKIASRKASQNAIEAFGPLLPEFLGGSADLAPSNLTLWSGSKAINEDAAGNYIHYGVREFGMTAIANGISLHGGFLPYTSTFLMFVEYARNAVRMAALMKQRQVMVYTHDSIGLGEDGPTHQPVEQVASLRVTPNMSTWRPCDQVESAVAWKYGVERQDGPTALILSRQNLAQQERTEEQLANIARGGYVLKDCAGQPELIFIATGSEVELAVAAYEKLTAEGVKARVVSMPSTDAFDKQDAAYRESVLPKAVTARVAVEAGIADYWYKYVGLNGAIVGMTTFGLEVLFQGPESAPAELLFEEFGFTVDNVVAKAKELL

[3] = target: T2, TktA variant with HRV protease cleavage motif inserted after amino acid 635
T2 chain: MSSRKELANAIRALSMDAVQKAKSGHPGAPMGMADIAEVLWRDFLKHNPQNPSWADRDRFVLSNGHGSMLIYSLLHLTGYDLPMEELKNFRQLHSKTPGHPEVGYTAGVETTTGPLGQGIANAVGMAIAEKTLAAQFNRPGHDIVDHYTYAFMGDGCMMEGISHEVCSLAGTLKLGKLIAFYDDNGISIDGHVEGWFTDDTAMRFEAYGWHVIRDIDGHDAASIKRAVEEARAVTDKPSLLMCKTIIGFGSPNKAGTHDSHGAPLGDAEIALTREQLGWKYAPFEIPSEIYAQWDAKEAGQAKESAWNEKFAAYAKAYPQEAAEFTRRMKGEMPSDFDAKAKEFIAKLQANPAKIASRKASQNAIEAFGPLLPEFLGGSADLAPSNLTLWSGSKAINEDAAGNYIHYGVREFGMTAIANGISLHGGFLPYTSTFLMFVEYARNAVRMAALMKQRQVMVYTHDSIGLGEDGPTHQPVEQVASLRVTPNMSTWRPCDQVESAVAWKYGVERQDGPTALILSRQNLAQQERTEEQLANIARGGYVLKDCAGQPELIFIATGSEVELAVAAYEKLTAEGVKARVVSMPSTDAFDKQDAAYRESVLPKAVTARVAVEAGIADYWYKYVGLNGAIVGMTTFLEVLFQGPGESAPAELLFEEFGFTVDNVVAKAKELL

[4] = target: T3, wild-type TktA protein (transketolase A of Escherichia coli)
T3 chain: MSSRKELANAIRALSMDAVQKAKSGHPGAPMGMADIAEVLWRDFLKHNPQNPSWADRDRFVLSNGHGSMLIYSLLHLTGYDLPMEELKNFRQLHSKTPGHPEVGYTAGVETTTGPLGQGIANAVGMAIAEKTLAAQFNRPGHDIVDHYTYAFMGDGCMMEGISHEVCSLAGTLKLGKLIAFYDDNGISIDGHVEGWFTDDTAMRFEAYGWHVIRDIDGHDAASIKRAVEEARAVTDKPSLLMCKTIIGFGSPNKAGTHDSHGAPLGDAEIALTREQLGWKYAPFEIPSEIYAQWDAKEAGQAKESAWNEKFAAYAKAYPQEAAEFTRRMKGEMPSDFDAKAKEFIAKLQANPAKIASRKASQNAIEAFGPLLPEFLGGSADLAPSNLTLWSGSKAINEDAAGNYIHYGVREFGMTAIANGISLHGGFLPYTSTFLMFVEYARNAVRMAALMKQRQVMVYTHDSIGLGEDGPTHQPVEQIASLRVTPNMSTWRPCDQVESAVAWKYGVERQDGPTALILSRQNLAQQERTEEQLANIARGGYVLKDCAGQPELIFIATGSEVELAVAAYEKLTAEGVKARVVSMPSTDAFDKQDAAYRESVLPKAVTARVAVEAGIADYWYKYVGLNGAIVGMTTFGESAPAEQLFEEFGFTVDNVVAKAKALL

[5] = target: T4, TktA variant with HRV protease cleavage motif inserted after amino acid 640
T4 chain: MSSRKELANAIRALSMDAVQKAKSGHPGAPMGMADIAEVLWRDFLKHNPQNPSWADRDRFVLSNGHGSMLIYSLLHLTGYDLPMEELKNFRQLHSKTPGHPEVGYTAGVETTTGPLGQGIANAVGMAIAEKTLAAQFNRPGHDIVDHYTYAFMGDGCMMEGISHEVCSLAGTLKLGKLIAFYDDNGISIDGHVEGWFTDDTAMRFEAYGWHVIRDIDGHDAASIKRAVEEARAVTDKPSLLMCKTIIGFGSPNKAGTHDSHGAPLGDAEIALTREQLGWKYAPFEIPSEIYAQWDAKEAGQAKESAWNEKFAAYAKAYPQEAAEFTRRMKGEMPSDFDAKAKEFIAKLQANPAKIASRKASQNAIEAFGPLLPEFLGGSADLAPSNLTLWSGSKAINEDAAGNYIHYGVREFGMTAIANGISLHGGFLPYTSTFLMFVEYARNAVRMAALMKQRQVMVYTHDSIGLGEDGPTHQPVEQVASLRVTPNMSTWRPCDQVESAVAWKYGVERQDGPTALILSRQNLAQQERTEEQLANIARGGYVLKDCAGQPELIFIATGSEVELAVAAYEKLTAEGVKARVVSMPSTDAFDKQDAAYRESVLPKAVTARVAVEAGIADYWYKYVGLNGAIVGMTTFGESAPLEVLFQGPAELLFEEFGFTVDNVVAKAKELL

[6] = target: T5, TktA variant with HRV protease cleavage motif inserted after amino acid 638
T5 chain: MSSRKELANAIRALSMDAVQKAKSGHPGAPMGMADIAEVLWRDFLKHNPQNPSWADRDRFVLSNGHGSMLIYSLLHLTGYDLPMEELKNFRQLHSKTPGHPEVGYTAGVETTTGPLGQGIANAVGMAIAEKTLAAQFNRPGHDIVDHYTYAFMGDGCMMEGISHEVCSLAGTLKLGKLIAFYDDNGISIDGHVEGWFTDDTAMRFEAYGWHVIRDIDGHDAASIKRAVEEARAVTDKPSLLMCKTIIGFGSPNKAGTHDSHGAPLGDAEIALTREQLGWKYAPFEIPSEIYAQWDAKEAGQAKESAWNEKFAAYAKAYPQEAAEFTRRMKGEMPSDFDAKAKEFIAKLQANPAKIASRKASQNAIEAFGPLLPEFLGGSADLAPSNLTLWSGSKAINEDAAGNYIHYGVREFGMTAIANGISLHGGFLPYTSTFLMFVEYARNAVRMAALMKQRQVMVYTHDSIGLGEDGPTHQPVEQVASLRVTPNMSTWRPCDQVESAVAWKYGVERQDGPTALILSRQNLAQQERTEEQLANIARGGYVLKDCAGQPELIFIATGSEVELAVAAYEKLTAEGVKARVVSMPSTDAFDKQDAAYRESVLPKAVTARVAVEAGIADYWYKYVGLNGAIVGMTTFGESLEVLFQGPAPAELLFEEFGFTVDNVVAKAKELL

[7] = target: T6, TktA variant with HRV protease cleavage motif inserted after amino acid 637
T6 chain: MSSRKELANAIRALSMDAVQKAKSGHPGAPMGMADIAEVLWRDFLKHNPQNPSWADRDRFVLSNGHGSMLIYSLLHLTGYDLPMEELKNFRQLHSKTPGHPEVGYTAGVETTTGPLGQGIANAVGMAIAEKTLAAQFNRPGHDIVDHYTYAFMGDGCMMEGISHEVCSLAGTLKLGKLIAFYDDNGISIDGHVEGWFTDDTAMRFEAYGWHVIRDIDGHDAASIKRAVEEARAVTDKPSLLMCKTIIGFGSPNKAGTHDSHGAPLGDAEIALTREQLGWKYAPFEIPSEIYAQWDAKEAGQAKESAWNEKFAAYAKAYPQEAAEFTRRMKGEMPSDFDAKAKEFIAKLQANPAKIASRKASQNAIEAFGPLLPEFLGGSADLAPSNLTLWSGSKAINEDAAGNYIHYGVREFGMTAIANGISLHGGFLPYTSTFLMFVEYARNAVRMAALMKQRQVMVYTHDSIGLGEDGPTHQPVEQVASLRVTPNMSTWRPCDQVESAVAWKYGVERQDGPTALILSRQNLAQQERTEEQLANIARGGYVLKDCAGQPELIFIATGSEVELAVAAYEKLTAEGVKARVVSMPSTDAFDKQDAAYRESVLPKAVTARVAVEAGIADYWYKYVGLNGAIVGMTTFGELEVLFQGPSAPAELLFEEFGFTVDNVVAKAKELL

B1: HRV 3C protease with an N-terminal OmpA leader sequence (periplasmic) (protein)
chain: GPEEEFGMSLIKHNSCVITTENGKFTGLGVYDRFVVVPTHADPGKEIQVDGITTKVIDSYDLYNKNGIKLEITVLKLDRNEKFRDIRRYIPNNEDDYPNCNLALLANQPEPTIINVGDVVSYGNILLSGNQTARMLKYSYPTKSGYCGGVLYKIGQVLGIHVGGNGRDGFSAMLLRSYFTDVQ
[1]
  Pgi activity in clarified lysate after 2 h IPTG induction of periplasmically sequestered HRV 3C protease (pGLC089, OmpA leader); no-protease strain 1.3 (µmol/min/mg total protein): 0.01

B2: HRV 3C protease (codon-optimized for expression in E. coli), cytoplasmic (protein)
chain: MGPEEEFGMSLIKHNSCVITTENGKFTGLGVYDRFVVVPTHADPGKEIQVDGITTKVIDSYDLYNKNGIKLEITVLKLDRNEKFRDIRRYIPNNEDDYPNCNLALLANQPEPTIINVGDVVSYGNILLSGNQTARMLKYSYPTKSGYCGGVLYKIGQVLGIHVGGNGRDGFSAMLLRSYFTDVQ
[2]
  growth rate in minimal glucose medium, HRV protease +inducer (2% arabinose, pGLC217); -inducer value 0.43: 0.17
[3]
  growth rate in minimal glucose medium, HRV protease +inducer (2% arabinose, pGLC217); -inducer value 0.58: 0.47
[4]
  growth rate in minimal glucose medium, HRV protease +inducer (2% arabinose, pGLC217); -inducer value 0.60: 0.57
[5]
  growth rate in minimal glucose medium, HRV protease +inducer (2% arabinose, pGLC217); -inducer value 0.55: 0.34
[6]
  growth rate in minimal glucose medium, HRV protease +inducer (2% arabinose, pGLC217); -inducer value 0.13: 0.08
[1]
  Pgi activity in clarified lysate after 2 h IPTG induction of cytoplasmic HRV 3C protease (pGLC221, no OmpA leader); no-protease strain 1.3 (µmol/min/mg total protein): -0.01
[7]
  growth rate in minimal glucose medium, HRV protease +inducer (2% arabinose, pGLC217); -inducer value 0.40: 0.11

B3: tobacco etch virus (TEV) protease (protein)
chain: GESLFKGPRDYNPISSTICHLTNESDGHTTSLYGIGFGPFIITNKHLFRRNNGTLLVQSLHGVFKVKNTTTLQQHLIDGRDMIIIRMPKDFPPFPQKLKFREPQREERICLVTTNFQTKSMSSMVSDTSCTFPSSDGIFWKHWIQTKDGQCGSPLVSTRDGFIVGIHSASNFTNTNNYFTSVPKNFMELLTNQEAQQWVSGWRLNADSVLWGGHKVFMSKPEEPFQPVKEATQLMNELVYSQ
[2]
  growth rate in minimal glucose medium, TEV protease control +inducer (2% arabinose, pGLC219); -inducer value 0.39: 0.42
[3]
  growth rate in minimal glucose medium, TEV protease control +inducer (2% arabinose, pGLC219); -inducer value 0.52: 0.52
[4]
  growth rate in minimal glucose medium, TEV protease control +inducer (2% arabinose, pGLC219); -inducer value 0.55: 0.53
[5]
  growth rate in minimal glucose medium, TEV protease control +inducer (2% arabinose, pGLC219); -inducer value 0.48: 0.52
[6]
  growth rate in minimal glucose medium, TEV protease control +inducer (2% arabinose, pGLC219); -inducer value 0.18: 0.18
[7]
  growth rate in minimal glucose medium, TEV protease control +inducer (2% arabinose, pGLC219); -inducer value 0.46: 0.46
